Laboratory results taken from patent publication US20210101998A1 (Pfizer, published 2021).
Where two headings read alike, the source gives them in different places.

T1: murTFPI K1K2 (mouse)
T1 construct: also called Mouse TFPI K1K2; mouse TFPI
T1 chain: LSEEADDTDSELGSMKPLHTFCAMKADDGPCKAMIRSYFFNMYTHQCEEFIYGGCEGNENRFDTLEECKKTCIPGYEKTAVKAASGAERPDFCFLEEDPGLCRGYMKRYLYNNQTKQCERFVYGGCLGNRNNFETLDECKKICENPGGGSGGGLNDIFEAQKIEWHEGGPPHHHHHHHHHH

T2: rabTFPI K1K2 (rabbit, limits assumed)
T2 construct: also called Rabbit TFPI K1K2; rabbit TFPI
T2 chain: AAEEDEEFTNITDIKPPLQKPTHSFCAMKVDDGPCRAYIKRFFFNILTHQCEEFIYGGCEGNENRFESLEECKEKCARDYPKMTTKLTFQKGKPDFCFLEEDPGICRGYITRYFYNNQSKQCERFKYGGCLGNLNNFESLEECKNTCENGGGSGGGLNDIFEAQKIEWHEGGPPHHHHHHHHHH

T3: ratTFPI K1K2 (rat)
T3 chain: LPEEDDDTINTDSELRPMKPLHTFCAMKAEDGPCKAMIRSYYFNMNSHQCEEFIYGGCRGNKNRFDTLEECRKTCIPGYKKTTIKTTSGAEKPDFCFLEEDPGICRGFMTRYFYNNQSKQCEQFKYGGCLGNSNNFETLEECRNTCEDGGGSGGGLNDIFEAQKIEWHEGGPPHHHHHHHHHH

B1: hz4D8 (antibody, human IgG1, kappa, V domains shown)
VH: EVQLVESGGGLVQPGGSLRLSCAASGYTFTDYNLDWVRQAPGKGLEWVADINPINGATLYNQKFKGRFTISRDQAKNSLYLQMNSLRAEDTAVYYCARYYGDYDAMDYWGQGTLVTVSS
VL: DIQMTQSPSSLSASVGDRVTITCKASQDVHTAVAWYQQKPGKAPKLLIYWASTRHTGVPSRFSGSGSGTDYTLTISSLQPEDFATYYCQQHYTTPYTFGQGTKLEIKR
notes: also called 4D8-Vk1.1 × VH1.4; 4D8 Vk 1.1 × VH 1.4
B2: hz4F36 (antibody, human IgG4 S228P, kappa, V domains shown)
VH: EVQLVESGGGLVKPGGSLRLSCAASGFTFSNYAMSWVRQTPEKRLEWVATISRSGSYSYFPDSVQGRFTISRDNAKNSLYLQMNSLRAEDTAVYYCARLGGYDEGDAMDSWGQGTTVTVSS
VL: DIVMTQTPLSLSVTPGQPASISCKSSQSLLESDGKTYLNWYLQKPGQSPQLLIYLVSILDSGVPDRFSGSGSGTDFTLKISRVEAEDVGVYYCLQATHFPQTFGGGTKVEIKR
notes: also called Novo2021; Anti-TFPI-4F36
B3: TFPI-24 (antibody, human IgG1, lambda, V domains shown)
VH: EVQLVESGGGSVQPGRSLRLSCAVSGLTIDNYAMQWVRQRPGKGLEWVSGISGNSRSIGYADSVKGRLTISRDNAKNSLYLQIDSLRADDTALYYCAIFLHESDYWGQGTLVTVSS
VL: QSVLTQPPSVSGTPGQRVTISCSGSTSNIGTMYVHWYQHVPGTAPKLLIYRNNHRPSGVPDRFSGSKSGTSGSLAISGLRSEDEADYYCLAWDDTLRAYVFGTGTKVTVLG
notes: Human IgG1-3M from phage display; also called mAb-TFPI-24; clone 24
B4: TFPI-118 (antibody, human IgG1, lambda, V domains shown)
VH: EVQLVESGGGLVQPGRSLRLSCAVSGLTIDNYAMQWVRQAPGKGLEWVSGISGNSRSIGYADSVKGRFTISRDNAKNSLYLQMNSLRAEDTALYYCAIFLHESDYWGQGTLVTVSS
VL: QSVLTQPPSASGTPGQRVTISCSGSTSNIGTMYVHWYQQLPGTAPKLLIYRNNHRPSGVPDRFSGSKSGTSASLAISGLRSEDEADYYCLAWDDTLRAYVFGTGTKVTVLG
notes: Germlined variant of TFPI-24: VL of TFPI-113 paired with VH of TFPI-108

What was measured:
humTFPI K1K2 [1] = biological target: T4, humTFPI K1K2 (human); test: SPR, summary table
T4 construct: Biotinylated on the AviTag for ELISA; also called Human TFPIα K1K2; humTFPI K1K2-aviHis10
Protocol: (§1) The flow cells were activated by injecting a 1:1 mixture of 400 mM 1-Ethyl-3-(3-dimethylaminopropyl) carbodiimide hydrochloride (EDC) and N-hydroxysuccinimide (NHS) for 7 minutes at a flow rate of 10 μl/minute. Anti-human IgG antibody was diluted to 25 μg/ml in 10 mM Sodium Acetate pH 5.0 and injected over all flow cells for 7 minutes at 10 ul/minute. All flow cells were blocked with 1 M Ethanolamine-HCL (ETH) for 7 minutes at 10 μl/minute. Final immobilization level of the capture antibody was approximately 10,000 resonance units (RU). The running buffer for immobilization and kinetics was 10 mM HEPES pH 7.4, 150 mM NaCl, 3 mM EDTA, 0.05% (v/v) Tween-20 (HBS-EP+). […] Flow cell 1 was used as a reference surface. […] At the end of each cycle, the entire anti-IgG surface was regenerated by a 60 second pulse of 3 M MgCl2. Kinetic assays were conducted at 25° C. at a collection rate of 10 Hz on a BIAcore T200 instrument (GE Healthcare). Rate constants and affinities were determined by fitting the data to a 1:1 model in BIAcore T200 Evaluation software version 1.0 (GE).

murTFPI K1K2 [2] = biological target: T1, murTFPI K1K2; test: SPR, summary table
Protocol: as §1

cynTFPI K1K2 [3] = biological target: T5, cynTFPI K1K2 (cynomolgus monkey); test: SPR, summary table
T5 construct: also called Cynomolgus Monkey TFPI K1K2; cyno TFPI K1K2
Protocol: as §1

rabTFPI K1K2 [4] = biological target: T2, rabTFPI K1K2; test: SPR, summary table
Protocol: as §1

ratTFPI K1K2 [5] = biological target: T3, ratTFPI K1K2; test: SPR, summary table
Protocol: as §1

humTFPI K1K2 [6] = biological target: T4, humTFPI K1K2; test: cell-based or functional assay
humTFPI K1K2 [7] = biological target: T4, humTFPI K1K2; test: cell-based or functional assay; remark: listed apart in the source
humTFPI K1K2 [8] = biological target: T4, humTFPI K1K2; test: SPR, antibody ligand, TFPI analyte;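 on result: surface plasmon resonance on a BIAcore T200 at 25 °C, test antibody captured on immobilized anti-human IgG, TFPI K1K2 flowed as analyte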
Protocol: as §1

humTFPI K1K2 [9] = biological target: T4, humTFPI K1K2; test: SPR, antibody ligand, TFPI analyte; remark: listed apart in the source
Protocol: as §1

cynTFPI K1K2 [10] = biological target: T5, cynTFPI K1K2; test: SPR, antibody ligand, TFPI analyte;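 further: surface plasmon resonance on a BIAcore T200 at 25 °C, test antibody captured on immobilized anti-human IgG, TFPI K1K2 flowed as analyte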
Protocol: as §1

rabTFPI K1K2 [11] = biological target: T2, rabTFPI K1K2; test: SPR, antibody ligand, TFPI analyte;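 further: surface plasmon resonance on a BIAcore T200 at 25 °C, test antibody captured on immobilized anti-human IgG, TFPI K1K2 flowed as analyte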
Protocol: as §1

humTFPI K1K2 [12] = biological target: T4, humTFPI K1K2; test: ELISA, biotinylated TFPI on streptavidin plate
rabTFPI K1K2 [13] = biological target: T2, rabTFPI K1K2; test: ELISA, biotinylated TFPI on streptavidin plate
ratTFPI K1K2 [14] = biological target: T3, ratTFPI K1K2; test: SPR, antibody ligand, TFPI analyte;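 further: surface plasmon resonance on a BIAcore T200 at 25 °C, test antibody captured on immobilized anti-human IgG, TFPI K1K2 flowed as analyte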
Protocol: as §1

humTFPI K1K2 [15] = biological target: T4, humTFPI K1K2; test: cell-based or functional assay; remark: listed apart in the source
humTFPI K1K2 [16] = biological target: T4, humTFPI K1K2; test: SPR, antibody ligand, TFPI analyte; remark: listed apart in the source
murTFPI K1K2 [17] = biological target: T1, murTFPI K1K2; test: SPR, antibody ligand, TFPI analyte
humTFPI K1K2 [18] = biological target: T4, humTFPI K1K2; test: SPR, antibody ligand, TFPI analyte; remark: listed apart in the source
Protocol: as §1

Binder | Kd (humTFPI K1K2 [1]) | binding result (murTFPI K1K2 [2]) | Kd (cynTFPI K1K2 [3]) | Kd (rabTFPI K1K2 [4]) | FVIIa/TF/Xa EC50 (humTFPI K1K2 [7]) | Xa Inhibition Assay EC50 (humTFPI K1K2 [7]) | Kd (humTFPI K1K2 [9]) | koff (humTFPI K1K2 [9]) | kon (humTFPI K1K2 [9]) | Kd (cynTFPI K1K2 [10]) | koff (cynTFPI K1K2 [10]) | kon (cynTFPI K1K2 [10]) | Kd (rabTFPI K1K2 [11]) | koff (rabTFPI K1K2 [11]) | kon (rabTFPI K1K2 [11]) | also measured
B1 | 0.42 nM | no binding | 0.067 nM | 0.502 nM | 0.4 nM | 6.92 nM | 0.42 nM | 0.00132 s⁻¹ | 3.16e+06 M⁻¹ s⁻¹ | 0.067 nM | 0.00195 s⁻¹ | 2.93e+07 M⁻¹ s⁻¹ | 0.502 nM | 0.0029 s⁻¹ | 3.16e+06 M⁻¹ s⁻¹ | binding result (ratTFPI K1K2 [5]): no binding; FXa EC50 (humTFPI K1K2 [6]): 1.87 nM; FXa-FVIIa EC50 (humTFPI K1K2 [6]): 1.57 nM; Kd (humTFPI K1K2 [8]): 0.293 nM; koff (humTFPI K1K2 [8]): 5.28e-05 s⁻¹; kon (humTFPI K1K2 [8]): 221000 M⁻¹ s⁻¹; EC50 (humTFPI K1K2 [12]): 0.0493 nM; EC50 (rabTFPI K1K2 [13]): 0.0716 nM
B2 | 0.493 nM | no binding | 0.425 nM | 1.81 nM | 1.85 nM | 6.57 nM | 0.49 nM | 0.00093 s⁻¹ | 1.89e+06 M⁻¹ s⁻¹ | 0.425 nM | 0.00288 s⁻¹ | 6.86e+06 M⁻¹ s⁻¹ | 1.81 nM | 0.0076 s⁻¹ | 4.2e+06 M⁻¹ s⁻¹ | binding result (ratTFPI K1K2 [14]): no binding
B3 | – | – | – | – | – | – | – | – | – | – | – | – | – | – | – | FXa EC50 (humTFPI K1K2 [15]): 23 nM; FXa-FVIIa EC50 (humTFPI K1K2 [15]): 9.3 nM; Kd (humTFPI K1K2 [16]): 5.46 nM; koff (humTFPI K1K2 [16]): 0.000862 s⁻¹; kon (humTFPI K1K2 [16]): 159000 M⁻¹ s⁻¹; Kd (murTFPI K1K2 [17]): 24.1 nM; koff (murTFPI K1K2 [17]): 0.00596 s⁻¹; kon (murTFPI K1K2 [17]): 248000 M⁻¹ s⁻¹; koff (humTFPI K1K2 [18]): 0.000862 s⁻¹; kon (humTFPI K1K2 [18]): 159000 M⁻¹ s⁻¹
B4 | – | – | – | 5.79 nM | 4.03 nM | 20.8 nM | – | – | – | – | – | – | 5.79 nM | – | – | Kd (ratTFPI K1K2 [5]): 3.65 nM; Kd (ratTFPI K1K2 [14]): 3.65 nM
